Like-named read-outs stand apart in the source and are kept apart here.
T1: PAC1-R on PAC1-R-expressing PC-12 cells (UniProt P32215 20-523)
T1 construct: whole, on cells; also called PAC1 receptor
T1 sequence (looked up): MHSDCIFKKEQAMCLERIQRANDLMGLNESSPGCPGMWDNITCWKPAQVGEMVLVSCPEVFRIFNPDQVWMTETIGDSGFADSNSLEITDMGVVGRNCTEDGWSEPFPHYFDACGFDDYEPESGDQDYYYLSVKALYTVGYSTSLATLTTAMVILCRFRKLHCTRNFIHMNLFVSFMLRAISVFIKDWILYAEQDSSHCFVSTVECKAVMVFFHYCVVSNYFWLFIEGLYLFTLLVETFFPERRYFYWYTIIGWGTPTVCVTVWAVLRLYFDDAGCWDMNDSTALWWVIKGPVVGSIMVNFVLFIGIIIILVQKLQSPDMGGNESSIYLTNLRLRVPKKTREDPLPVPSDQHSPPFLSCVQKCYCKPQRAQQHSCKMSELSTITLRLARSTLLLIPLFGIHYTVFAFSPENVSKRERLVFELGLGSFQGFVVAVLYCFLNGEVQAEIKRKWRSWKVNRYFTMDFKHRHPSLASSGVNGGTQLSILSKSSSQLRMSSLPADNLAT

T2: PACAP38 (Pituitary Adenylate Cyclase-Activating Polypeptide, 38 amino acids) (human, not fully specified; the C-terminal lysine is amidated)
T2 construct: In the HTRF and PC-12 cell assays the peptide was N-terminally or C-terminally biotinylated; unlabelled in SPR; also called human PACAP38; huPACAP (1-38)
T2 peptide: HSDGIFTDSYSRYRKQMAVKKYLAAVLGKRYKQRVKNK

T3: PACAP27 (Pituitary Adenylate Cyclase-Activating Polypeptide, 27 amino acids) (human, the C-terminal leucine is amidated)
T3 construct: also called human PACAP27
T3 peptide: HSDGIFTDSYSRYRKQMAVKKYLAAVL

T4: VIP (Vasoactive Intestinal Peptide) (human)
T4 construct: also called human VIP
T4 peptide: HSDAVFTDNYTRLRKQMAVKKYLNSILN


What was measured:
[1] = target: T1, PAC1-R on PAC1-R-expressing PC-12 cells; assay: cell surface binding assay (DELFIA TRF): antibody pre-incubated with PACAP38, added to PAC1-R-expressing PC-12 cells, detected with Eu anti-human IgG
Experimental: Cells were initially seeded at 1×10⁵ cells/well in a solution of complete RPMI (“cRPMI”: RPMI medium supplemented with 10% sterile heat-inactivated FBS and 1% sterile antibiotic/antimycotic)+10% FBS, and the plates were allowed to incubate overnight at 37° C. On the day of the binding assay, antibodies at an initial concentration of 15 μg/ml were diluted at a 1:3 ratio in DELFIA® binding buffer (50 mM Tris, 150 mM NaCl, 0.1% azide, 2% horse serum) (Perkin-Elmer, Waltham, MA) to a total volume of 60 μL in a separate 96 well round bottom plate. PACAP38 was prepared for the binding assay by diluting it in DELFIA® binding buffer to a concentration of 200 nM, and then 60 μl of the diluted PACAP38 was added to each of the antibody-containing wells to form antibody: antigen complexes. Following addition of PACAP38, the antibody: antigen complexes were incubated at room temperature on a shaker for 1 hour. Separately, the PC-12 cells were prepared for addition of antibody: antigen complexes by washing the cells two times with DELFIA® wash buffer (50 mM Tris, 150 mM NaCl, 0.1% Azide) (Perkin-Elmer, Waltham, MA). After washing the cells two times and following the 1 hour room temperature incubation of the antibody: antigen complexes, 50 μl of the antibody: antigen complex was added to each well containing cells. The mixtures of cells and antibody: antigen complexes were then incubated for 30 minutes at room temperature. Following this 30 minute incubation, each mixture was washed two times with DELFIA® wash buffer (Perkin-Elmer, Waltham, MA).
DELFIA® Europium labeled anti-human IgG detection reagent (Cat #1244-330, Perkin-Elmer, Waltham, MA) was diluted to a concentration of 300 ng/ml in DELFIA® Binding Buffer. Following dilution, 50 μl of the anti-human IgG detection reagent was added to each well containing cells, and a 30 minute incubation at room temperature followed this addition of IgG detection reagent. After completion of the 30 minute room temperature incubation, the cells were then washed two times with DELFIA® wash buffer. Next, 50 μl of DELFIA® Enhancement Solution (Cat #1244-105, Perkin-Elmer, Waltham, MA) was added to each well containing cells for a final 15 minute room temperature incubation with shaking. The plates were then read (TRF, excitation 330 nm, emission 620 nm) on a SPECTRAMAX® (Molecular Devices, Sunnyvale, CA) plate reader.

[2] = target: T2, PACAP38 (Pituitary Adenylate …); assay: SPR (ProteOn XPR36), antibody amine-coupled, peptide analyte, 1:1 Langmuir fit
Experimental: (§1) Binding affinities of monoclonal antibodies for human PACAP were estimated using SPR on the PROTEON™ XPR36 (Bio-Rad, Hercules, CA). Antibody was immobilized to the surface of general amine coupling (“GLC” or “GLM”) Chips (Bio-Rad, Hercules, CA). […] Antigen (ranging from 1.23 nM to 100 nM) was typically run sequentially with association times of 2-4 minutes and dissociation times of 3-120 minutes grouped with the PROTEON™ Manager Software (v3.1.0.6 (Bio-Rad, Hercules, CA)) and fitted using a 1:1 Langmuir binding model. Surfaces were regenerated between analyte queries using 0.85% Phosphoric Acid.

[3] = target: T3, PACAP27 (Pituitary Adenylate …); assay: as above
Experimental: as §1

[4] = target: T2, PACAP38 (Pituitary Adenylate …); assay: cell-based or functional assay
[5] = target: T3, PACAP27 (Pituitary Adenylate …); assay: cell-based or functional assay
[6] = target: T4, VIP (Vasoactive Intestinal Peptide); assay: SPR (ProteOn XPR36), antibody amine-coupled, peptide analyte, 1:1 Langmuir fit
[7] = target: T2, PACAP38 (Pituitary Adenylate …); assay: as above
Experimental: (§2) Binding affinities of monoclonal antibodies for human PACAP were estimated using SPR on the PROTEON™ XPR36 (Bio-Rad, Hercules, CA). Antibody was immobilized to the surface of general amine coupling (“GLC″ or “GLM”) Chips (Bio-Rad, Hercules, CA). […] Antigen (ranging from 1.23 nM to 100 nM) was typically run sequentially with association times of 2-4 minutes and dissociation times of 3-120 minutes grouped with the PROTEON™ Manager Software (v3.1.0.6 (Bio-Rad, Hercules, CA)) and fitted using a 1:1 Langmuir binding model. Surfaces were regenerated between analyte queries using 0.85% Phosphoric Acid, 0.5% SDS, and 0.1N NaOH.

[8] = target: T3, PACAP27 (Pituitary Adenylate …); assay: as above
Experimental: as §2

[9] = target: T2, PACAP38 (Pituitary Adenylate …); assay: cell-based or functional assay
[10] = target: T4, VIP (Vasoactive Intestinal Peptide); assay: SPR (ProteOn XPR36), antibody amine-coupled, peptide analyte, 1:1 Langmuir fit
[11] = target: T2, PACAP38 (Pituitary Adenylate …); assay: cell-based or functional assay

| Binder | binding result [1] | Kd [2] [nM] | koff [2] [s⁻¹] | kon [2] [M⁻¹ s⁻¹] | Kd [3] [nM] | koff [3] [s⁻¹] | kon [3] [M⁻¹ s⁻¹] | Inhibition of 0.1 nM PACAP38-induced PAC1-R mediated cAMP increase IC50 (pM) [4] [pM] | Inhibition of 1 nM PACAP27-induced PAC1-R mediated cAMP increase IC50 (pM) [5] [pM] | Kd [6] [nM] | koff [6] [s⁻¹] | kon [6] [M⁻¹ s⁻¹] | Kd [7] [nM] | koff [7] [s⁻¹] | kon [7] [M⁻¹ s⁻¹] | Kd [8] [nM] | koff [8] [s⁻¹] | kon [8] [M⁻¹ s⁻¹] | Inhibition of 5 nM PACAP38-induced human VPAC1-R mediated cAMP increase IC50 (pM) [9] [pM] | Kd [10] [nM] | also measured |
| --- | --- | --- | --- | --- | --- | --- | --- | --- | --- | --- | --- | --- | --- | --- | --- | --- | --- | --- | --- | --- | --- |
| Ab23 (antibody, human IgG1, kappa, N297A, V domains shown, Full-length anti-PACAP antibody; rabbit/human chimeric) VH: QSVEESGGRLVTPGTPLTLTCTVSGFSLNNYAMSWVRQAPGKGLEWIGIMGVNDITYYASWAKGRFTISKTSTTVDLKMTSLTTEDTATYFCTREIRDDGDSSDKLWGPGTLVTVSS VL: AIKMTQTPSSVSAAVGGTVTINCQASEDIYTNLAWYQQKPGQPPNLLIYDASDLASGVPSRFSGSGDGTQFTLTISAVQCEDAATYYCQGVAWSSNTGYGSAFGGGTEVVVKR | no binding (tested: about 70 nM) |  |  |  |  |  |  |  |  |  |  |  |  |  |  |  |  |  |  |  |  |
| Ab21.H3 (antibody, human IgG1, kappa, N297A, Full-length humanized variant of Ab21) heavy: not shown light: DIQLTQSPSTLSASVGDRVTITCKSSESVYGDYLAWFQQKPGKAPKQLIYDASTLASGVPSRFSGSGSGTEFTLTISSLQPDDFATYYCAGGYVSAGVAFGGGTKVEIKRTVAAPSVFIFPPSDEQLKSGTASVVCLLNNFYPREAKVQWKVDNALQSGNSQESVTEQDSKDSTYSLSSTLTLSKADYEKHKVYACEVTHQGLSSPVTKSFNRGEC |  |  |  |  |  |  |  | 65.3 | 318 |  |  |  | ≤ 0.0223 | ≤ 1e-05 | 449000 | ≤ 0.0311 | ≤ 1e-05 | 322000 | 2520 | 424 | koff [10]: 0.0249 s⁻¹; kon [10]: 58700 M⁻¹ s⁻¹; Inhibition of 1 nM PACAP38-induced human VPAC2-R mediated cAMP increase IC50 (pM) [11]: 1530 pM |
| Ab10.H5 (antibody, human IgG1, kappa, N297A, Full-length humanized variant of Ab10) heavy: not shown light: QLTQSPSTLSASVGDRVTITCQSSESVYGNYLAWFQQKPGKAPKFLIYEASKLESGVPSRFSGSGSGTEFTLTISSLQPDDFATYYCAGGDISEGVAFGGGTKVEIKRTVAAPSVFIFPPSDEQLKSGTASVVCLLNNFYPREAKVQWKVDNALQSGNSQESVTEQDSKDSTYSLSSTLTLSKADYEKHKVYACEVTHQGLSSPVTKSFNRGEC | no binding (tested: about 70 nM) |  |  |  |  |  |  | 22.7 | 733 |  |  |  |  |  |  |  |  |  |  |  |  |

More lines, main results first:

| binding result [1] | Kd [2] [nM] | koff [2] [s⁻¹] | kon [2] [M⁻¹ s⁻¹] | Kd [3] [nM] | koff [3] [s⁻¹] | kon [3] [M⁻¹ s⁻¹] | Inhibition of 0.1 nM PACAP38-induced PAC1-R mediated cAMP increase IC50 (pM) [4] [pM] | Inhibition of 1 nM PACAP27-induced PAC1-R mediated cAMP increase IC50 (pM) [5] [pM] | Kd [6] [nM] | koff [6] [s⁻¹] | kon [6] [M⁻¹ s⁻¹] | Kd [7] [nM] | koff [7] [s⁻¹] | kon [7] [M⁻¹ s⁻¹] | Kd [8] [nM] | koff [8] [s⁻¹] | kon [8] [M⁻¹ s⁻¹] | Inhibition of 5 nM PACAP38-induced human VPAC1-R mediated cAMP increase IC50 (pM) [9] [pM] | Kd [10] [nM] | Binder | also measured |
| --- | --- | --- | --- | --- | --- | --- | --- | --- | --- | --- | --- | --- | --- | --- | --- | --- | --- | --- | --- | --- | --- |
| no binding (tested: about 70 nM) | 0.022 | 1.4e-05 | 630000 | 0.078 | 1.7e-05 | 210000 | 21.3 | 466 | 230 | 0.046 | 200000 |  |  |  |  |  |  |  |  | Ab10.H2 (antibody, human IgG1, kappa, N297A, Full-length humanized variant of Ab10) heavy: not shown light: AVLTQSPSTLSASVGDRVTITCQSSESVYGNYLAWFQQKPGKAPKFLIYEASKLESGVPSRFSGSGSGTEFTLTISSLQPDDFATYYCAGGDISEGVAFGGGTKVEIKRTVAAPSVFIFPPSDEQLKSGTASVVCLLNNFYPREAKVQWKVDNALQSGNSQESVTEQDSKDSTYSLSSTLTLSKADYEKHKVYACEVTHQGLSSPVTKSFNRGEC |  |
| no binding (tested: about 70 nM) | ≤ 0.019 | ≤ 1e-05 | 530000 | 0.093 | 1.7e-05 | 190000 | 22.8 | 329 | 98 | 0.015 | 150000 |  |  |  |  |  |  |  |  | Ab10.H4 (antibody, human IgG1, kappa, N297A, Full-length humanized variant of Ab10) heavy: not shown light: DIVLTQSPSTLSASVGDRVTITCQSSESVYGNYLAWFQQKPGKAPKFLIYEASKLESGVPSRFSGSGSGTEFTLTISSLQPDDFATYYCAGGDISEGVAFGGGTKVEIKRTVAAPSVFIFPPSDEQLKSGTASVVCLLNNFYPREAKVQWKVDNALQSGNSQESVTEQDSKDSTYSLSSTLTLSKADYEKHKVYACEVTHQGLSSPVTKSFNRGEC |  |
|  |  |  |  |  |  |  | 83.4 | 275 |  |  |  | ≤ 0.0238 | ≤ 1e-05 | 420000 | ≤ 0.0351 | ≤ 1e-05 | 285000 | 2830 | 523 | Ab21.H4 (antibody, human IgG1, kappa, N297A, Full-length humanized variant of Ab21) heavy: not shown light: DIVLTQSPSTLSASVGDRVTITCKSSESVYGDYLAWFQQKPGKAPKQLIYDASTLASGVPSRFSGSGSGTEFTLTISSLQPDDFATYYCAGGYVSAGVAFGGGTKVEIKRTVAAPSVFIFPPSDEQLKSGTASVVCLLNNFYPREAKVQWKVDNALQSGNSQESVTEQDSKDSTYSLSSTLTLSKADYEKHKVYACEVTHQGLSSPVTKSFNRGEC | koff [10]: 0.0289 s⁻¹; kon [10]: 55300 M⁻¹ s⁻¹; Inhibition of 1 nM PACAP38-induced human VPAC2-R mediated cAMP increase IC50 (pM) [11]: 2880 pM |

From patent US20250009876A1 (H LUNDBECK A S, published 2025)
